± gives the uncertainty stated by the source.
B1: RAS guanyl-releasing protein 1, residues 539 to 593; numbered along this chain, O95267 (parent)
chain: GFPHNFQETTYLKPTFCDNCAGFLWGVIKQGYRCKDCGMNCHKQCKDLVVFECKK

Variants of: B1
Assay: abundance fitness (aPCA) (normalised: wild type 0, dead -1); higher = more abundant; growth selection in yeast, the domain comes from the species named
Settings: Homo sapiens

Abundance fitness, by site and new letter:
K29: W -0.256 ± 0.14, Y -0.011 ± 0.12
Q30: A -0.597 ± 0.12, E -0.589 ± 0.058, F -0.756 ± 0.21, G -0.52 ± 0.11, H -0.663 ± 0.21, I -0.872 ± 0.24, K -0.599 ± 0.3, L -0.765 ± 0.12, N -0.495 ± 0.15, P -0.669 ± 0.18, R -0.519 ± 0.1, S -0.54 ± 0.061, V -0.617 ± 0.1, W -0.586 ± 0.2, Y -0.693 ± 0.19
G31: A -0.092 ± 0.077, C -0.352 ± 0.08, D -0.597 ± 0.12, E -0.414 ± 0.11, F -0.205 ± 0.15, H -0.559 ± 0.12, I -0.685 ± 0.22, K -0.748 ± 0.13, L -0.663 ± 0.066, M -0.461 ± 0.32, N -0.717 ± 0.3, P -1.08 ± 0.37, R -0.719 ± 0.1, S -0.482 ± 0.059, V -0.479 ± 0.067, W -0.901 ± 0.21, Y -0.06 ± 0.13
Y32: A -0.171 ± 0.073, C -0.059 ± 0.07, D -0.224 ± 0.12, E -0.166 ± 0.1, F -0.312 ± 0.14, G -0.186 ± 0.069, H -0.132 ± 0.1, I -0.184 ± 0.13, K -0.132 ± 0.047, L -0.104 ± 0.055, M -0.101 ± 0.13, P -0.883 ± 0.2, Q -0.536 ± 0.23, R -0.393 ± 0.095, S -0.026 ± 0.084, T 0.093 ± 0.095, V -0.007 ± 0.056, W -0.068 ± 0.085
R33: A -0.167 ± 0.093, C 0.122 ± 0.13, D -0.26 ± 0.14, E 0.129 ± 0.079, F -0.017 ± 0.06, G -0.134 ± 0.1, I 0.118 ± 0.076, K 0.121 ± 0.091, L -0.078 ± 0.078, M 0.069 ± 0.083, N 0.286 ± 0.17, P -0.919 ± 0.13, Q -0.262 ± 0.1, S -0.025 ± 0.058, V -0.1 ± 0.046, W 0.004 ± 0.096, Y -0.402 ± 0.12
C34: A -0.81 ± 0.18, D -0.269 ± 0.12, F -0.729 ± 0.071, G -0.951 ± 0.083, H -0.809 ± 0.38, I -0.724 ± 0.32, K -0.886 ± 0.25, L -0.915 ± 0.094, M -0.649 ± 0.086, Q -0.924 ± 0.26, R -0.954 ± 0.15, S -0.947 ± 0.12, T -0.776 ± 0.21, V -0.723 ± 0.12, W -0.891 ± 0.23, Y -0.922 ± 0.38
K35: A 0.041 ± 0.074, C -0.13 ± 0.096, D -0.096 ± 0.14, E 0.039 ± 0.087, F -0.193 ± 0.098, G -0.118 ± 0.088, H -0.029 ± 0.11, I -0.009 ± 0.049, L 0.021 ± 0.044, M -0.266 ± 0.099, N -0.297 ± 0.11, P -0.134 ± 0.11, Q 0.1 ± 0.097, R -0.004 ± 0.067, S -0.026 ± 0.07, T -0.022 ± 0.08, V -0.135 ± 0.07, W -0.19 ± 0.095, Y 0.024 ± 0.11
D36: A -0.146 ± 0.069, C -0.245 ± 0.14, E -0.021 ± 0.099, F -0.108 ± 0.16, G 0.118 ± 0.08, H -0.148 ± 0.29, I -0.028 ± 0.22, K -0.139 ± 0.1, L -0.051 ± 0.072, M -0.09 ± 0.11, N -0.006 ± 0.12, P -0.2 ± 0.13, Q -0.209 ± 0.11, R -0.055 ± 0.075, S -0.028 ± 0.075, T -0.02 ± 0.11, V -0.289 ± 0.096, W -0.041 ± 0.068, Y -0.296 ± 0.14
C37: A -1.25 ± 0.4, D -0.864 ± 0.17, E -0.967 ± 0.41, F -0.924 ± 0.18, G -1.14 ± 0.14, K -0.933 ± 0.32, L -0.953 ± 0.1, M -0.904 ± 0.24, N -0.824 ± 0.3, P -1.07 ± 0.24, Q -0.87 ± 0.32, R -0.879 ± 0.077, S -0.625 ± 0.083, T -0.427 ± 0.1, V -0.959 ± 0.098, W -0.607 ± 0.11, Y -0.708 ± 0.29
G38: A 0.032 ± 0.079, C -0.095 ± 0.066, D -0.003 ± 0.11, E 0.077 ± 0.077, F -0.071 ± 0.1, I -0.453 ± 0.17, L -0.075 ± 0.051, M -0.095 ± 0.085, N 0.062 ± 0.14, P -0.081 ± 0.12, Q -0.281 ± 0.15, S -0.02 ± 0.064, T -0.282 ± 0.17, W -0.109 ± 0.071, Y -0.514 ± 0.23
M39: A -0.111 ± 0.041, C -0.455 ± 0.054, D -0.242 ± 0.066, F -0.158 ± 0.051, G -0.097 ± 0.049, I -0.115 ± 0.045, K -0.079 ± 0.055, L -0.122 ± 0.04, N -0.15 ± 0.049, P -1.03 ± 0.064, Q -0.032 ± 0.067, R -0.143 ± 0.048, T -0.142 ± 0.048, V -0.111 ± 0.046, W -0.157 ± 0.058, Y -0.1 ± 0.045
N40: A -0.081 ± 0.063, C -0.137 ± 0.06, D -0.023 ± 0.053, E -0.082 ± 0.061, G -0.08 ± 0.052, H -0.127 ± 0.047, I -0.093 ± 0.049, K -0.17 ± 0.063, L -0.349 ± 0.045, M -0.087 ± 0.061, P -0.144 ± 0.04, Q -0.02 ± 0.072, R -0.142 ± 0.059, T -0.042 ± 0.042, V -0.063 ± 0.044, Y -0.285 ± 0.055
C41: A -0.016 ± 0.072, D -0.758 ± 0.33, E -0.414 ± 0.11, F -0.331 ± 0.095, H -0.662 ± 0.32, I -0.012 ± 0.091, K -0.139 ± 0.084, L -0.023 ± 0.061, M -0.281 ± 0.15, N -0.47 ± 0.24, Q -0.484 ± 0.17, T -0.035 ± 0.092, V 0.068 ± 0.082, W -0.191 ± 0.073, Y 0.02 ± 0.1
H42: A -0.841 ± 0.095, C -0.416 ± 0.13, F -0.981 ± 0.23, G -0.249 ± 0.082, I -0.939 ± 0.16, K -0.849 ± 0.077, L -1.09 ± 0.1, M -0.76 ± 0.15, N -0.815 ± 0.28, P -0.859 ± 0.16, Q -0.862 ± 0.33, R -0.916 ± 0.11, S -0.319 ± 0.046, T -0.921 ± 0.22, V -1.09 ± 0.35, W -0.286 ± 0.1, Y -0.892 ± 0.38
K43: A -0.049 ± 0.081, C -0.053 ± 0.066, D 0.011 ± 0.093, E -0.002 ± 0.068, F -0.24 ± 0.21, G -0.074 ± 0.052, I 0.232 ± 0.1, L -0.066 ± 0.089, M -0.031 ± 0.093, N -0.417 ± 0.18, P -0.146 ± 0.09, R -0.094 ± 0.083, S -0.006 ± 0.061, T -0.024 ± 0.1, W -0.481 ± 0.16
Q44: A 0.011 ± 0.074, C 0.011 ± 0.12, D 0.125 ± 0.12, E 0.131 ± 0.058, F 0.072 ± 0.14, H 0.083 ± 0.089, I -0.294 ± 0.28, K 0.043 ± 0.099, L -0.057 ± 0.087, M -0.001 ± 0.12, N -0.238 ± 0.35, P -0.119 ± 0.079, R 0.047 ± 0.065, S 0.149 ± 0.089, T -0.226 ± 0.13, V 0.079 ± 0.11, W 0.003 ± 0.087, Y 0.128 ± 0.052
C45: A -0.527 ± 0.086, D -0.036 ± 0.13, E 0.068 ± 0.074, F -0.514 ± 0.056, G -0.347 ± 0.063, H -0.446 ± 0.13, I -0.554 ± 0.21, K -0.643 ± 0.25, L -0.976 ± 0.13, M -0.57 ± 0.18, N -0.647 ± 0.34, P -0.977 ± 0.22, R -0.773 ± 0.083, S -0.486 ± 0.094, V -0.621 ± 0.068, W -0.772 ± 0.19, Y -0.575 ± 0.061
K46: A -0.09 ± 0.12, C 0.129 ± 0.092, D -0.541 ± 0.35, E -0.013 ± 0.087, F -0.228 ± 0.14, G -0.018 ± 0.076, H 0.096 ± 0.14, L -0.007 ± 0.077, M 0.208 ± 0.088, N -0.337 ± 0.17, P -0.147 ± 0.084, R -0.01 ± 0.066, S -0.078 ± 0.069, T -0.069 ± 0.079, V -0.251 ± 0.11, W -0.032 ± 0.053, Y -0.052 ± 0.092
D47: A -0.056 ± 0.09, C 0.212 ± 0.097, F -0.143 ± 0.41, G -0.05 ± 0.058, H -0.32 ± 0.17, I -0.211 ± 0.1, K -0.148 ± 0.096, L -0.141 ± 0.063, M -0.204 ± 0.11, N -0.306 ± 0.14, P -0.054 ± 0.11, Q 0.083 ± 0.12, R -0.177 ± 0.08, S 0.068 ± 0.082, T 0.047 ± 0.09, V -0.113 ± 0.083, W -0.142 ± 0.082, Y -0.105 ± 0.14
L48: A 0.023 ± 0.048, C 0.069 ± 0.12, E -0.061 ± 0.07, F 0.018 ± 0.11, G 0.074 ± 0.061, H -0.209 ± 0.21, I -0.378 ± 0.12, K 0.011 ± 0.052, M 0.055 ± 0.1, N -0.295 ± 0.15, P -0.15 ± 0.17, Q 0.031 ± 0.09, R -0.136 ± 0.079, S 0.058 ± 0.089, T -0.047 ± 0.078, V -0.049 ± 0.081, W -0.052 ± 0.053, Y 0.007 ± 0.049
V49: A 0.041 ± 0.086, C -0.229 ± 0.09, E -0.001 ± 0.12, F 0.002 ± 0.065, G -0.122 ± 0.084, H 0.229 ± 0.1, I -0.319 ± 0.16, L -0.276 ± 0.095, M -0.446 ± 0.2, N 0.035 ± 0.15, P -0.174 ± 0.12, Q -0.071 ± 0.15
